Test results published in patent US20140105889A1 (published 2014).

Target: T1, human FcγRIIIa(F) (human, UniProt P08637 17-208, limits assumed)
T1 construct: also called hFcgRIIIa(F); allotype F158
Test: SPR (Biacore), antibody captured on Protein L, human FcgR as analyte, pH 7.4, 25 C; amount normalised to captured antibody
Method: Binding activity between the antibodies and human FcγRIa, FcγRIIa(H), FcγRIIa(R), FcγRIIb and FcγRIIIa(F) (hereinafter referred to as human FcγRs) was evaluated using the Biacore T100 or T200 (GE Healthcare). The antibodies being tested were captured by Protein L (ACTIGEN) that was immobilized in suitable amounts on the CM4 Sensor Chip (GE Healthcare) by amine coupling. Next, the diluted human FcγRs and a running buffer used as a blank were injected to allow interaction with the antibodies captured on the sensor chip. A buffer consisting of 20 mmol/L ACES, 150 mmol/L NaCl and 0.05% (w/v) Tween 20 (pH 7.4) was used for the running buffer, and this buffer was also used to dilute the human FcγRs. 10 mmol/L glycine-HCl (pH 1.5) was used to regenerate the sensor chip. All measurements were carried out at 25° C.
Binding activity to human FcγRs can be represented by the relative binding activity to human FcγRs. Antibody was captured by Protein L, and the amount of change in a sensorgram before and after the antibody was captured was defined as X1. Next, human FcγRs were allowed to interact with the antibody, and the value obtained by subtracting binding activity of human FcγRs represented as the amount of change in a sensorgram before and after allowing the running buffer to interact with antibody captured by Protein L (ΔA2) from the value obtained by multiplying by 1500 the value obtained by dividing the binding activity of human FcγRs represented as the amount of change in a sensorgram before and after that interaction (ΔA1) by the captured amount (X) of each antibody, was divided by the captured amount of each antibody (X) followed by multiplying by 1500 to obtain the binding activity of the human FcγRs (Y) (Equation 2).

T1 sequence (P08637 other isoform, or with tags, fused parts or gaps limits assumed): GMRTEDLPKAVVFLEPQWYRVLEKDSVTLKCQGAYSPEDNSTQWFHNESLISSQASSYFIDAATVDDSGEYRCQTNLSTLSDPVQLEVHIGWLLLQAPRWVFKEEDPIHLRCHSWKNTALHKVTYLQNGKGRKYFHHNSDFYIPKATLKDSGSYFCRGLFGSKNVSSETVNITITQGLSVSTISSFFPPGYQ

Row | Binder | BINDING AMOUNT (RU)
1 | antibody containing VH3-IgG1-F890 for the heavy chain and L(WT)-CK for the light chain (antibody) heavy: QVQLQESGPGLVKPSETLSLTCAVSGHSISHDHAWSWVRQPPGEGLEWIGFISYSGITNYNPSLQGRVTISRDNSKNTLYLQMNSLRAEDTAVYYCARSLARTTAMDYWGEGTLVTVSSASTKGPSVFPLAPSSKSTSGGTAALGCLVKDYFPEPVTVSWNSGALTSGVHTFPAVLQSSGLYSLSSVVTVPSSSLGTQTYICNVNHKPSNTKVDKKVEPKSCDKTHTCPPCPAPELLGGPSVFLFPPKPKDTLYISRTPEVTCVVVDVSHEDPEVKFNWYVDGVEVHNAKTKPREEQYNSTYRVVSVLTVLHQDWLNGKEYKCKVSNKALPAPIEKTISKAKGQPREPQVYTLPPSRDELTKNQVSLTCLVKGFYPSDIAVEWESNGQPENNYKTTPPVLDSDGSFFLYSKLTVDKSRWQQGNVFSCSVMHEALHYHVTQKSLSLSP light: not shown | 63.5
2 | antibody containing VH3-IgG1-F1333 for the heavy chain and L(WT)-CK for the light chain (antibody) heavy: QVQLQESGPGLVKPSETLSLTCAVSGHSISHDHAWSWVRQPPGEGLEWIGFISYSGITNYNPSLQGRVTISRDNSKNTLYLQMNSLRAEDTAVYYCARSLARTTAMDYWGEGTLVTVSSASTKGPSVFPLAPSSKSTSGGTAALGCLVKDYFPEPVTVSWNSGALTSGVHTFPAVLQSSGLYSLSSVVTVPSSSLGTQTYICNVNHKPSNTKVDKKVEPKSCDKTHTCPPCPAPELRRGPKVFLFPPKPKDTLYISRTPEVTCVVVDVSHEDPEVKFNWYVDGVEVHNAKTKPREEQYNSTYRVVSVLTVLHQDWLNGKEYKCKVSNKALPAPIEKTISKAKGQPREPQVYTLPPSRDELTKNQVSLTCLVKGFYPSDIAVEWESNGQPENNYKTTPPVLDSDGSFFLYSKLTVDKSRWQQGNVFSCSVMHEALHYHVTQKSLSLSP light: not shown | -1.01
3 | antibody containing VH3-IgG1-F1318 for the heavy chain and L(WT)-CK for the light chain (antibody) heavy: QVQLQESGPGLVKPSETLSLTCAVSGHSISHDHAWSWVRQPPGEGLEWIGFISYSGITNYNPSLQGRVTISRDNSKNTLYLQMNSLRAEDTAVYYCARSLARTTAMDYWGEGTLVTVSSASTKGPSVFPLAPSSKSTSGGTAALGCLVKDYFPEPVTVSWNSGALTSGVHTFPAVLQSSGLYSLSSVVTVPSSSLGTQTYICNVNHKPSNTKVDKKVEPKSCDKTHTCPPCPAPELLGGPKVFLFPPKPKDTLYISRTPEVTCVVVDVSHEDPEVKFNWYVDGVEVHNAKTKPREEQYNSTYRVVSVLTVLHQDWLNGKEYKCKVSNKALRAPIEKTISKAKGQPREPQVYTLPPSRDELTKNQVSLTCLVKGFYPSDIAVEWESNGQPENNYKTTPPVLDSDGSFFLYSKLTVDKSRWQQGNVFSCSVMHEALHYHVTQKSLSLSP light: not shown | -1.03
4 | antibody containing VH3-IgG1-F1317 for the heavy chain and L(WT)-CK for the light chain (antibody) heavy: QVQLQESGPGLVKPSETLSLTCAVSGHSISHDHAWSWVRQPPGEGLEWIGFISYSGITNYNPSLQGRVTISRDNSKNTLYLQMNSLRAEDTAVYYCARSLARTTAMDYWGEGTLVTVSSASTKGPSVFPLAPSSKSTSGGTAALGCLVKDYFPEPVTVSWNSGALTSGVHTFPAVLQSSGLYSLSSVVTVPSSSLGTQTYICNVNHKPSNTKVDKKVEPKSCDKTHTCPPCPAPELLGGPKVFLFPPKPKDTLYISRTPEVTCVVVDVSHEDPEVKFNWYVDGVEVHNAKTKPREEQYNSTYRVVSVLTVLHQDWLNGKEYKCKVSNKALKAPIEKTISKAKGQPREPQVYTLPPSRDELTKNQVSLTCLVKGFYPSDIAVEWESNGQPENNYKTTPPVLDSDGSFFLYSKLTVDKSRWQQGNVFSCSVMHEALHYHVTQKSLSLSP light: not shown | -0.94
5 | antibody containing VH3-IgG1-F1316 for the heavy chain and L(WT)-CK for the light chain (antibody) heavy: QVQLQESGPGLVKPSETLSLTCAVSGHSISHDHAWSWVRQPPGEGLEWIGFISYSGITNYNPSLQGRVTISRDNSKNTLYLQMNSLRAEDTAVYYCARSLARTTAMDYWGEGTLVTVSSASTKGPSVFPLAPSSKSTSGGTAALGCLVKDYFPEPVTVSWNSGALTSGVHTFPAVLQSSGLYSLSSVVTVPSSSLGTQTYICNVNHKPSNTKVDKKVEPKSCDKTHTCPPCPAPELLGRPKVFLFPPKPKDTLYISRTPEVTCVVVDVSHEDPEVKFNWYVDGVEVHNAKTKPREEQYNSTYRVVSVLTVLHQDWLNGKEYKCKVSNKALPAPIEKTISKAKGQPREPQVYTLPPSRDELTKNQVSLTCLVKGFYPSDIAVEWESNGQPENNYKTTPPVLDSDGSFFLYSKLTVDKSRWQQGNVFSCSVMHEALHYHVTQKSLSLSP light: not shown | -0.26
6 | antibody containing VH3-IgG1-F947 for the heavy chain and L(WT)-CK for the light chain (antibody) heavy: QVQLQESGPGLVKPSETLSLTCAVSGHSISHDHAWSWVRQPPGEGLEWIGFISYSGITNYNPSLQGRVTISRDNSKNTLYLQMNSLRAEDTAVYYCARSLARTTAMDYWGEGTLVTVSSASTKGPSVFPLAPSSKSTSGGTAALGCLVKDYFPEPVTVSWNSGALTSGVHTFPAVLQSSGLYSLSSVVTVPSSSLGTQTYICNVNHKPSNTKVDKKVEPKSCDKTHTCPPCPAPELLGGPSVFLFPPKPKDVLYISRTPEVTCVVVDVSHEDPEVKFNWYVDGVEVHNAKTKPREEQYNSTYRVVSVLQPLHADWLNGKEYKCKVSNKALPAPIEKTISKAKGQPREPQVYTLPPSRDELTKNQVSLTCLVKGFYPSDIAVEWESNGQPENNYKTTPPVLDSDGSFFLYSKLTVDKSRWQQGNVFSCSVMHEALHYHVTQKSLSLSP light: not shown | 105
7 | antibody containing VH3-IgG1-F938 for the heavy chain and L(WT)-CK for the light chain (antibody) heavy: QVQLQESGPGLVKPSETLSLTCAVSGHSISHDHAWSWVRQPPGEGLEWIGFISYSGITNYNPSLQGRVTISRDNSKNTLYLQMNSLRAEDTAVYYCARSLARTTAMDYWGEGTLVTVSSASTKGPSVFPLAPSSKSTSGGTAALGCLVKDYFPEPVTVSWNSGALTSGVHTFPAVLQSSGLYSLSSVVTVPSSSLGTQTYICNVNHKPSNTKVDKKVEPKSCDKTHTCPPCPAPELKGGPKVFLFPPKPKDTLYISRTPEVTCVVVDVSHEDPEVKFNWYVDGVEVHNAKTKPREEQYNSTYRVVSVLTVLHQDWLNGKEYKCKVSNKALPAPIEKTISKAKGQPREPQVYTLPPSRDELTKNQVSLTCLVKGFYPSDIAVEWESNGQPENNYKTTPPVLDSDGSFFLYSKLTVDKSRWQQGNVFSCSVMHEALHYHVTQKSLSLSP light: not shown | -0.34
8 | antibody containing VH3-IgG1-F939 for the heavy chain and L(WT)-CK for the light chain (antibody) heavy: QVQLQESGPGLVKPSETLSLTCAVSGHSISHDHAWSWVRQPPGEGLEWIGFISYSGITNYNPSLQGRVTISRDNSKNTLYLQMNSLRAEDTAVYYCARSLARTTAMDYWGEGTLVTVSSASTKGPSVFPLAPSSKSTSGGTAALGCLVKDYFPEPVTVSWNSGALTSGVHTFPAVLQSSGLYSLSSVVTVPSSSLGTQTYICNVNHKPSNTKVDKKVEPKSCDKTHTCPPCPAPELRGGPKVFLFPPKPKDTLYISRTPEVTCVVVDVSHEDPEVKFNWYVDGVEVHNAKTKPREEQYNSTYRVVSVLTVLHQDWLNGKEYKCKVSNKALPAPIEKTISKAKGQPREPQVYTLPPSRDELTKNQVSLTCLVKGFYPSDIAVEWESNGQPENNYKTTPPVLDSDGSFFLYSKLTVDKSRWQQGNVFSCSVMHEALHYHVTQKSLSLSP light: not shown | 0.51
9 | antibody containing VH3-IgG1-F1315 for the heavy chain and L(WT)-CK for the light chain (antibody) heavy: QVQLQESGPGLVKPSETLSLTCAVSGHSISHDHAWSWVRQPPGEGLEWIGFISYSGITNYNPSLQGRVTISRDNSKNTLYLQMNSLRAEDTAVYYCARSLARTTAMDYWGEGTLVTVSSASTKGPSVFPLAPSSKSTSGGTAALGCLVKDYFPEPVTVSWNSGALTSGVHTFPAVLQSSGLYSLSSVVTVPSSSLGTQTYICNVNHKPSNTKVDKKVEPKSCDKTHTCPPCPAPELLGKPKVFLFPPKPKDTLYISRTPEVTCVVVDVSHEDPEVKFNWYVDGVEVHNAKTKPREEQYNSTYRVVSVLTVLHQDWLNGKEYKCKVSNKALPAPIEKTISKAKGQPREPQVYTLPPSRDELTKNQVSLTCLVKGFYPSDIAVEWESNGQPENNYKTTPPVLDSDGSFFLYSKLTVDKSRWQQGNVFSCSVMHEALHYHVTQKSLSLSP light: not shown | -0.33
10 | antibody containing VH3-IgG1-F1009 for the heavy chain and L(WT)-CK for the light chain (antibody) heavy: QVQLQESGPGLVKPSETLSLTCAVSGHSISHDHAWSWVRQPPGEGLEWIGFISYSGITNYNPSLQGRVTISRDNSKNTLYLQMNSLRAEDTAVYYCARSLARTTAMDYWGEGTLVTVSSASTKGPSVFPLAPSSKSTSGGTAALGCLVKDYFPEPVTVSWNSGALTSGVHTFPAVLQSSGLYSLSSVVTVPSSSLGTQTYICNVNHKPSNTKVDKKVEPKSCDKTHTCPPCPAPELRGGPKVFLFPPKPKDVLYISRTPEVTCVVVDVSHEDPEVKFNWYVDGVEVHNAKTKPREEQYNSTYRVVSVLQPLHADWLNGKEYKCKVSNKALPAPIEKTISKAKGQPREPQVYTLPPSRDELTKNQVSLTCLVKGFYPSDIAVEWESNGQPENNYKTTPPVLDSDGSFFLYSKLTVDKSRWQQGNVFSCSVMHEALHYHVTQKSLSLSP light: not shown | -0.68
11 | antibody containing VH3-IgG1-F1325 for the heavy chain and L(WT)-CK for the light chain (antibody) heavy: QVQLQESGPGLVKPSETLSLTCAVSGHSISHDHAWSWVRQPPGEGLEWIGFISYSGITNYNPSLQGRVTISRDNSKNTLYLQMNSLRAEDTAVYYCARSLARTTAMDYWGEGTLVTVSSASTKGPSVFPLAPSSKSTSGGTAALGCLVKDYFPEPVTVSWNSGALTSGVHTFPAVLQSSGLYSLSSVVTVPSSSLGTQTYICNVNHKPSNTKVDKKVEPKSCDKTHTCPPCPAPEAAGGPSVFLFPPKPKDTLYISRTPEVTCVVVDVSHEDPEVKFNWYVDGVEVHNAKTKPREEQYASTYRVVSVLTVLHQDWLNGKEYKCKVSNKALPAPIEKTISKAKGQPREPQVYTLPPSRDELTKNQVSLTCLVKGFYPSDIAVEWESNGQPENNYKTTPPVLDSDGSFFLYSKLTVDKSRWQQGNVFSCSVMHEALHYHVTQKSLSLSP light: not shown | -0.54
12 | antibody containing VH3-IgG1-F1327 for the heavy chain and L(WT)-CK for the light chain (antibody) heavy: QVQLQESGPGLVKPSETLSLTCAVSGHSISHDHAWSWVRQPPGEGLEWIGFISYSGITNYNPSLQGRVTISRDNSKNTLYLQMNSLRAEDTAVYYCARSLARTTAMDYWGEGTLVTVSSASTKGPSVFPLAPSSKSTSGGTAALGCLVKDYFPEPVTVSWNSGALTSGVHTFPAVLQSSGLYSLSSVVTVPSSSLGTQTYICNVNHKPSNTKVDKKVEPKSCDKTHTCPPCPAPEAAGGPSVFLFPPKPKDVLYISRTPEVTCVVVDVSHEDPEVKFNWYVDGVEVHNAKTKPREEQYASTYRVVSVLQPLHADWLNGKEYKCKVSNKALPAPIEKTISKAKGQPREPQVYTLPPSRDELTKNQVSLTCLVKGFYPSDIAVEWESNGQPENNYKTTPPVLDSDGSFFLYSKLTVDKSRWQQGNVFSCSVMHEALHYHVTQKSLSLSP light: not shown | -1.85
